From US20130005646A1 (Novo Nordisk, published 2013) come the findings set out here.

Sequences and labels used below:
T1: human calcitonin (a) receptor (human, UniProt P30988 25-474)
T1 sequence (looked up): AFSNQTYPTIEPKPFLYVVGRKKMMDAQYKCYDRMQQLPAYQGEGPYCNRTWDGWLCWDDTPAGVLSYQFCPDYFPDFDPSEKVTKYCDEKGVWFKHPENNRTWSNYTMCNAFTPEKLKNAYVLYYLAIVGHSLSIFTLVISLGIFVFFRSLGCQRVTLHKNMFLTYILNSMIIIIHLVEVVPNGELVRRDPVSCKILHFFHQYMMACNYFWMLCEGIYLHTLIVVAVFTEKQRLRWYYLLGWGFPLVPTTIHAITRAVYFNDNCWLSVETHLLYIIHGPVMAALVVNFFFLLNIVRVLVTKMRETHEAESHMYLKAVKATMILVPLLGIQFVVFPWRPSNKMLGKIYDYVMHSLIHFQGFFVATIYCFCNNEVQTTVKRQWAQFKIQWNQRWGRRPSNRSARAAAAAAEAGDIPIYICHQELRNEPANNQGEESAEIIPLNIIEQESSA

T2: human amylin 3(a) receptor (human calcitonin receptor + RAMP-3) (human, UniProt P30988 25-474; O60896 24-148)
T2 sequence (looked up) 1: T1 sequence (looked up)
T2 sequence (looked up) 2: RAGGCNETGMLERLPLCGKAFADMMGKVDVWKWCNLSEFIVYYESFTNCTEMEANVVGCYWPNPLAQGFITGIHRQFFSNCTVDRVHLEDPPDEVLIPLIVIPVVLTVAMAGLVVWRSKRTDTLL

B1: N-alpha-[(S)-4-Carboxy-4-(19-carboxynonadecanoylamino)butyryl]-[Glu14,His17,Arg18,His35]-pramlintide (peptide)
peptide: {C20 diacid-γGlu}-KCNTATCATQRLAEFLHRSSNNFGPILPPTNVGSHTY-NH2
modifications: disulfide 2-7
SMILES: CC[C@H](C)[C@H](NC(=O)[C@@H]1CCCN1C(=O)CNC(=O)[C@H](Cc1ccccc1)NC(=O)[C@H](CC(N)=O)NC(=O)[C@H](CC(N)=O)NC(=O)[C@H](CO)NC(=O)[C@H](CO)NC(=O)[C@H](CCCNC(=N)N)NC(=O)[C@H](Cc1c[nH]cn1)NC(=O)[C@H](CC(C)C)NC(=O)[C@H](Cc1ccccc1)NC(=O)[C@H](CCC(=O)O)NC(=O)[C@H](C)NC(=O)[C@H](CC(C)C)NC(=O)[C@H](CCCNC(=N)N)NC(=O)[C@H](CCC(N)=O)NC(=O)[C@@H](NC(=O)[C@H](C)NC(=O)[C@@H]1CSSC[C@H](NC(=O)[C@H](CCCCN)NC(=O)CC[C@H](NC(=O)CCCCCCCCCCCCCCCCCCC(=O)O)C(=O)O)C(=O)N[C@@H](CC(N)=O)C(=O)N[C@@H]([C@@H](C)O)C(=O)N[C@@H](C)C(=O)N[C@@H]([C@@H](C)O)C(=O)N1)[C@@H](C)O)C(=O)N[C@@H](CC(C)C)C(=O)N1CCC[C@H]1C(=O)N1CCC[C@H]1C(=O)N[C@H](C(=O)N[C@@H](CC(N)=O)C(=O)N[C@H](C(=O)NCC(=O)N[C@@H](CO)C(=O)N[C@@H](Cc1c[nH]cn1)C(=O)N[C@H](C(=O)N[C@@H](Cc1ccc(O)cc1)C(N)=O)[C@@H](C)O)C(C)C)[C@@H](C)O
B2: N-alpha-[(S)-4-Carboxy-4-(19-carboxynonadecanoylamino)butyryl]-Gly-[Glu14,His17,His35]-pramlintide (peptide)
peptide: {C20 diacid-γGlu}-GKCNTATCATQRLAEFLHHSSNNFGPILPPTNVGSHTY-NH2
modifications: disulfide 3-8
SMILES: CC[C@H](C)[C@H](NC(=O)[C@@H]1CCCN1C(=O)CNC(=O)[C@H](Cc1ccccc1)NC(=O)[C@H](CC(N)=O)NC(=O)[C@H](CC(N)=O)NC(=O)[C@H](CO)NC(=O)[C@H](CO)NC(=O)[C@H](Cc1c[nH]cn1)NC(=O)[C@H](Cc1c[nH]cn1)NC(=O)[C@H](CC(C)C)NC(=O)[C@H](Cc1ccccc1)NC(=O)[C@H](CCC(=O)O)NC(=O)[C@H](C)NC(=O)[C@H](CC(C)C)NC(=O)[C@H](CCCNC(=N)N)NC(=O)[C@H](CCC(N)=O)NC(=O)[C@@H](NC(=O)[C@H](C)NC(=O)[C@@H]1CSSC[C@H](NC(=O)[C@H](CCCCN)NC(=O)CNC(=O)CC[C@H](NC(=O)CCCCCCCCCCCCCCCCCCC(=O)O)C(=O)O)C(=O)N[C@@H](CC(N)=O)C(=O)N[C@@H]([C@@H](C)O)C(=O)N[C@@H](C)C(=O)N[C@@H]([C@@H](C)O)C(=O)N1)[C@@H](C)O)C(=O)N[C@@H](CC(C)C)C(=O)N1CCC[C@H]1C(=O)N1CCC[C@H]1C(=O)N[C@H](C(=O)N[C@@H](CC(N)=O)C(=O)N[C@H](C(=O)NCC(=O)N[C@@H](CO)C(=O)N[C@@H](Cc1c[nH]cn1)C(=O)N[C@H](C(=O)N[C@@H](Cc1ccc(O)cc1)C(N)=O)[C@@H](C)O)C(C)C)[C@@H](C)O
B3: N-alpha-[2-(2-{2-[2-(2-{2-[(S)-4-Carboxy-4-(17-carboxyheptadecanoylamino)butyrylamino]ethoxy}ethoxy)acetylamino]ethoxy}ethoxy)acetyl]-[Glu1,Glu14,His17,Pro37]-p … (peptide)
peptide: {C18 diacid-γGlu-AEEA-AEEA}-ECNTATCATQRLAEFLHHSSNNFGPILPPTNVGSNTP-NH2
modifications: disulfide 2-7
SMILES: CC[C@H](C)[C@H](NC(=O)[C@@H]1CCCN1C(=O)CNC(=O)[C@H](Cc1ccccc1)NC(=O)[C@H](CC(N)=O)NC(=O)[C@H](CC(N)=O)NC(=O)[C@H](CO)NC(=O)[C@H](CO)NC(=O)[C@H](Cc1c[nH]cn1)NC(=O)[C@H](Cc1c[nH]cn1)NC(=O)[C@H](CC(C)C)NC(=O)[C@H](Cc1ccccc1)NC(=O)[C@H](CCC(=O)O)NC(=O)[C@H](C)NC(=O)[C@H](CC(C)C)NC(=O)[C@H](CCCNC(=N)N)NC(=O)[C@H](CCC(N)=O)NC(=O)[C@@H](NC(=O)[C@H](C)NC(=O)[C@@H]1CSSC[C@H](NC(=O)[C@H](CCC(=O)O)NC(=O)COCCOCCNC(=O)COCCOCCNC(=O)CC[C@H](NC(=O)CCCCCCCCCCCCCCCCC(=O)O)C(=O)O)C(=O)N[C@@H](CC(N)=O)C(=O)N[C@@H]([C@@H](C)O)C(=O)N[C@@H](C)C(=O)N[C@@H]([C@@H](C)O)C(=O)N1)[C@@H](C)O)C(=O)N[C@@H](CC(C)C)C(=O)N1CCC[C@H]1C(=O)N1CCC[C@H]1C(=O)N[C@H](C(=O)N[C@@H](CC(N)=O)C(=O)N[C@H](C(=O)NCC(=O)N[C@@H](CO)C(=O)N[C@@H](CC(N)=O)C(=O)N[C@H](C(=O)N1CCC[C@H]1C(N)=O)[C@@H](C)O)C(C)C)[C@@H](C)O
B4: N-epsilon17-[2-(2-{2-[2-(2-{2-[(S)-4-Carboxy-4-(17-carboxyheptadecanoylamino)butyrylamino]ethoxy}ethoxy)acetylamino]ethoxy}ethoxy)acetyl]-[Glu14,Lys17]-pramlint … (peptide)
peptide: KCNTATCATQRLAEFLK([AEEA-AEEA-γGlu-C18 diacid])HSSNNFGPILPPTNVGSNTY-NH2
modifications: disulfide 2-7; N-terminus assumed
SMILES: CC[C@H](C)[C@H](NC(=O)[C@@H]1CCCN1C(=O)CNC(=O)[C@H](Cc1ccccc1)NC(=O)[C@H](CC(N)=O)NC(=O)[C@H](CC(N)=O)NC(=O)[C@H](CO)NC(=O)[C@H](CO)NC(=O)[C@H](Cc1c[nH]cn1)NC(=O)[C@H](CCCCNC(=O)COCCOCCNC(=O)COCCOCCNC(=O)CC[C@H](NC(=O)CCCCCCCCCCCCCCCCC(=O)O)C(=O)O)NC(=O)[C@H](CC(C)C)NC(=O)[C@H](Cc1ccccc1)NC(=O)[C@H](CCC(=O)O)NC(=O)[C@H](C)NC(=O)[C@H](CC(C)C)NC(=O)[C@H](CCCNC(=N)N)NC(=O)[C@H](CCC(N)=O)NC(=O)[C@@H](NC(=O)[C@H](C)NC(=O)[C@@H]1CSSC[C@H](NC(=O)[C@@H](N)CCCCN)C(=O)N[C@@H](CC(N)=O)C(=O)N[C@@H]([C@@H](C)O)C(=O)N[C@@H](C)C(=O)N[C@@H]([C@@H](C)O)C(=O)N1)[C@@H](C)O)C(=O)N[C@@H](CC(C)C)C(=O)N1CCC[C@H]1C(=O)N1CCC[C@H]1C(=O)N[C@H](C(=O)N[C@@H](CC(N)=O)C(=O)N[C@H](C(=O)NCC(=O)N[C@@H](CO)C(=O)N[C@@H](CC(N)=O)C(=O)N[C@H](C(=O)N[C@@H](Cc1ccc(O)cc1)C(N)=O)[C@@H](C)O)C(C)C)[C@@H](C)O
B5: N-alpha-[(S)-4-Carboxy-4-(19-carboxynonadecanoylamino)butyryl]-[His1,Glu14,His17,Arg18,His35]-pramlintide (peptide)
peptide: {C20 diacid-γGlu}-HCNTATCATQRLAEFLHRSSNNFGPILPPTNVGSHTY-NH2
modifications: disulfide 2-7
SMILES: CC[C@H](C)[C@H](NC(=O)[C@@H]1CCCN1C(=O)CNC(=O)[C@H](Cc1ccccc1)NC(=O)[C@H](CC(N)=O)NC(=O)[C@H](CC(N)=O)NC(=O)[C@H](CO)NC(=O)[C@H](CO)NC(=O)[C@H](CCCNC(=N)N)NC(=O)[C@H](Cc1c[nH]cn1)NC(=O)[C@H](CC(C)C)NC(=O)[C@H](Cc1ccccc1)NC(=O)[C@H](CCC(=O)O)NC(=O)[C@H](C)NC(=O)[C@H](CC(C)C)NC(=O)[C@H](CCCNC(=N)N)NC(=O)[C@H](CCC(N)=O)NC(=O)[C@@H](NC(=O)[C@H](C)NC(=O)[C@@H]1CSSC[C@H](NC(=O)[C@H](Cc2c[nH]cn2)NC(=O)CC[C@H](NC(=O)CCCCCCCCCCCCCCCCCCC(=O)O)C(=O)O)C(=O)N[C@@H](CC(N)=O)C(=O)N[C@@H]([C@@H](C)O)C(=O)N[C@@H](C)C(=O)N[C@@H]([C@@H](C)O)C(=O)N1)[C@@H](C)O)C(=O)N[C@@H](CC(C)C)C(=O)N1CCC[C@H]1C(=O)N1CCC[C@H]1C(=O)N[C@H](C(=O)N[C@@H](CC(N)=O)C(=O)N[C@H](C(=O)NCC(=O)N[C@@H](CO)C(=O)N[C@@H](Cc1c[nH]cn1)C(=O)N[C@H](C(=O)N[C@@H](Cc1ccc(O)cc1)C(N)=O)[C@@H](C)O)C(C)C)[C@@H](C)O

Starred links: 1 amine or outer side, 2 acyl side, 3 side chain; linkers in the order of their positions; H or OH if unused. Positions of bridges follow the written chain, without caps; N, C: chain ends. Groups on a side chain read outwards from the residue. No end group written: not given here. *: point of attachment. C20 diacid = O=C(O)CCCCCCCCCCCCCCCCCCC(=O)*; C18 diacid = O=C(O)CCCCCCCCCCCCCCCCC(=O)*; γGlu = O=C(O)[C@H](CCC(=O)[*:2])N[*:1]; AEEA = NCCOCCOCC(=O)O

The target of the first assay is T1, human calcitonin (a) receptor. The assay is described as follows: cell-based or functional assay.
As to B1, the “CTa receptor human EC50” value was 0.0965 nM.

As for B2, the “CTa receptor human EC50” value was 0.0705 nM.

As to B3, the “CTa receptor human EC50” value was 0.288 nM.

Consider B4, for which the “CTa receptor human EC50” value is 4.3 nM.

On to B5, for which the “CTa receptor human EC50” value is 0.11 nM.

The target of the next assay is T2, human amylin 3(a) receptor (human …). Put plainly: cell-based or functional assay.
Take B1: the “Amylin receptor human EC50” value was 0.0685 nM.

Turning to B2, the “Amylin receptor human EC50” value stood at 0.0955 nM.

In the case of B3, the “Amylin receptor human EC50” value was 0.108 nM.

For B4, the “Amylin receptor human EC50” value was 0.456 nM.

Consider B5, for which the “Amylin receptor human EC50” value turned out to be 0.066 nM.
